Data taken from patent publication US20200247894A1 (Regeneron, published 2020).
Values belong to the binder of their own block, whether it stands above or below them.

Experiments:
[1] = molecular target: T1, human IL-2Rγ endogenously expressed on NK-92 and Jurkat cells (human, UniProt P31785 23-369); assay: flow cytometry, 10 ug/ml antibody, NK-92 cells (endogenous human IL-2Rg)
T1 construct: whole, on cells; on cells it stands with the other receptor subunits of the cell line; also called IL-2Rg; CD132
T1 sequence (looked up): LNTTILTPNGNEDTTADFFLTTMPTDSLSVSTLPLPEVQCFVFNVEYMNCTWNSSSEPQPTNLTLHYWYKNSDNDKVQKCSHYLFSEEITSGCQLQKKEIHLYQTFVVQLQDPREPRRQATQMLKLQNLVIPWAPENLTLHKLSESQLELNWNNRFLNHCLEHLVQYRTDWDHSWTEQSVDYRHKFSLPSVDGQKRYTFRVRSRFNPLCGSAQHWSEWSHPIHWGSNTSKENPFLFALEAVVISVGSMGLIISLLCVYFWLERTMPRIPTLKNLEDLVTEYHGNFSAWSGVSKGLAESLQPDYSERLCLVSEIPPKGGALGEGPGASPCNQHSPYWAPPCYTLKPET
Procedure: (§1) For flow cytometry analyses, the cells were pre-incubated with mouse IgG at 100 μg/ml for 15 minutes at room temperature (RT) to block the binding of the antibodies to Fc receptors. […] Cells were washed, fixed using BD CytoFix™ (BD biosciences, #554655) and analyzed on an IQue® (Intellicyt®) Flow Cytometer or Accuri Flow cytometer (BD). […] The results were analyzed using ForeCyt® (IntelliCyt®) software to determine the geometric means of fluorescence (MFI) for viable cells. Binding ratios were calculated by normalizing the MFI of the test sample by the MFI of the unstained sample.

[2] = molecular target: T2, human IL2Rγ (endogenously expressed on cells) (human, UniProt P31785 23-369); assay: cell-based or functional assay
T2 sequence (looked up): T1 sequence (looked up)

[3] = molecular target: T3, D1 domain of human IL-2Rγ extracellular domain expressed with a C-terminal myc-myc-hexahistidine tag (human); assay: SPR, mAb captured on anti-hFc, 37 C
T3 construct: also called human IL2Rγ domain 1
T3 chain: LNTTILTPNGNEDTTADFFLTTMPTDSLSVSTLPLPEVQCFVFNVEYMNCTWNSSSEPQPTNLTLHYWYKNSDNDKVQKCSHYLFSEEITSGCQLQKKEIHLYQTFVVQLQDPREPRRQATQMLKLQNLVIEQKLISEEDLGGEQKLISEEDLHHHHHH
Procedure: (§2) Equilibrium dissociation constants (KD values) for IL-2Rγ binding to purified anti-IL2Rγ monoclonal antibodies were determined using a Biacore 4000 instrument equipped with a real-time surface plasmon resonance biosensor. All binding studies were performed in 10 mM HEPES, 150 mM NaCl, 3 mM EDTA, and 0.05% v/v Surfactant Tween-20, pH 7.4 (HBS-ET) running buffer at 25° C. and 37° C. The Biacore sensor surface was first derivatized by amine coupling with a monoclonal mouse anti-human Fc antibody (GE, # BR-1008-39) to capture anti-IL2Rγ monoclonal antibodies.
(§3) The dissociation of monoclonal antibody bound IL2Rγ reagents were monitored for 8-10 minutes in HBS-ET running buffer. Kinetic association (kₐ) and dissociation (kd) rate constants were determined by fitting the real-time sensorgrams to a 1:1 binding model using Scrubber 2.0c curve fitting software. Binding dissociation equilibrium constants (KD) and dissociative half-lives (t_{1/2}) were calculated from the kinetic rate constants as: […]

[4] = molecular target: T3, D1 domain of human IL-2Rγ extracellular …; assay: SPR, mAb captured on anti-hFc, 25 C
Procedure: as §2, §3

[5] = molecular target: T4, mouse IL-2Rγ endogenously expressed on MC/9 cells (mouse, UniProt P34902 23-369); assay: flow cytometry, 10 ug/ml antibody, MC/9 cells (endogenous mouse IL-2Rg)
T4 construct: whole, on cells
T4 sequence (looked up): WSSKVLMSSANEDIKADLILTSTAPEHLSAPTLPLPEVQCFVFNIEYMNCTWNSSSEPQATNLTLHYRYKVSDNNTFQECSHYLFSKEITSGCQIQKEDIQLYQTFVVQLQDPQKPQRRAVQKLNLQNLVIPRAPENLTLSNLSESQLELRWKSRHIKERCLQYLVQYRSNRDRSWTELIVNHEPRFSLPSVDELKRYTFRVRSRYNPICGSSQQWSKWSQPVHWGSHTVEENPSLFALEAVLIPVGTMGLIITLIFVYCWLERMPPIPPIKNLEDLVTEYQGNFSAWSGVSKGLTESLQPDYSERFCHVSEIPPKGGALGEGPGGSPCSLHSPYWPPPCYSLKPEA
Procedure: as §1

Binding Ratio (Sample over unstained MFIs) [1]: 24 | Raw MFI [1]: 4650 MFI
B2: H4H13544P2 (antibody, human IgG4 S228P, kappa, V domains shown)
VH: QLQLQESGPGLVKPSETLSLTCTVSGGSISIKNYYWGWIRQPPGKGLEWIGSIYYSGTTYYNPSLKSRVTISVDTSKNQFSLKLSSVTAADTAVYHCARHGYSYGHGWFDPWGQGTLVTVSS
VL: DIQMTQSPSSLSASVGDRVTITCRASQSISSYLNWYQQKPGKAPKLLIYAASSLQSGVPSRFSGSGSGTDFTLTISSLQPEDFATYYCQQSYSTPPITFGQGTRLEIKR
notes: fully human anti-IL2Rg antibody, human IgG4

Binding Ratio (Sample over unstained MFIs) [1]: 3 | Raw MFI [1]: 592 MFI
B6: H4H13545P2 (antibody, human IgG4 S228P, kappa, V domains shown)
VH: QVQLQQSGPGLVKPSQTLSLTCDISGDSVSSNIATWNWIRQSPSRGLEWLGRTYYRSKWYKDYAVSVKSRITINPDTSKNQFSLQVNSVTPEDTAVYYCARMTGPRYYFEYWGQGTLVTVSS
VL: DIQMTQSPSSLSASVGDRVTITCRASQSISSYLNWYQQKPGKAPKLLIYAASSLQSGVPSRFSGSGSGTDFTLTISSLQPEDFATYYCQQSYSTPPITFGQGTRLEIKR
notes: as for B2

Further lines, the binder ahead of its results:

B1: H4H13541P (antibody, human IgG4 S228P, kappa, V domains shown)
VH: EVQLVESGGGVVRPGGSLRLSCAASGFIFDDYDMSWVRQPPGRGLEWVSGIDWFGGTRGYADSMKGRFTISRDNAKNSLYLQMNSLRVEDTAFYYCARGGAIVGAVTPFDYWGQGTLVTVSS
VL: DIQMTQSPSSLSASVGNRVTLSCRASQSINTYLSWYQQRPGKAPKLLIYAASSLQSGVPSRFSGSGAGTDFTLTISSLQPEDFATYYCQQSYSAPLTFGGGTKVEIKR
notes: as for B2
Binding Ratio (Sample over unstained MFIs) [1]: 37 | Raw MFI [1]: 7050 MFI

B3: H4H13538P (antibody, human IgG4 S228P, kappa, V domains shown)
VH: EVQLVESGGGLVQPGGSLGLSCAASGFTFSNYAMSWVRQAPGKGLEWVSAVSGGGGGTYYADSVKGRFTISRDNSKNTVLLQMNSLRAEDTAVYYCARGRTGGLDYWGPGTLVTVSS
VL: DVVMTQSPLSLPVIFGQPASISCRSSQSLVDSDGNTYLNWLQQRPGQSPRRLIYEVSNRDSGVPDRFSGSGSGTDFTLTISRVEAEDVGIYYCMQGTRWPPTFGGGTKVEIKR
notes: as for B2
Binding Ratio (Sample over unstained MFIs) [1]: 1 | Raw MFI [1]: 235 MFI

B4: H4H12857P (antibody, human IgG4 S228P, kappa, V domains shown)
VH: EVQLVESGGGVVRPGGSLRLSCAASGFTFDDFDMSWVRQGPGKGLEWVSGINWHGSSTGYADSVKGRFTISRDNAKNSLYLQMSSLRAEDTALYHCVRGGTIVGATTPLDYWGQGTLVTVSS
VL: DIQMTQSPSSLSASVGDRVTMTCRASRTISSYLSWYQQKSGKVPNLLIFGASSLQSGVPSRFSASGSGTDFTLIISSLQPEDFATYYCQQSYSSPLTFGGGTKVEIKR
notes: human IgG4; also called REGN9432
IC50; IL-2 30 pM; NK92/hIL7R/STAT3-luc [2]: > 1e-07 M | IC50; IL-4 250 pM; Ramos.2G6.4C10/STAT3-luc [2]: 3.8e-08 M | IC50; IL-7 50 pM; NK92/hIL7R/STAT3-luc [2]: 1.6e-08 M | IC50; IL-9 20 pM; NK92/hIL7R/STAT3-luc [2]: > 1e-07 M | IC50; IL-15 60 pM; NK92/hIL7R/STAT3-luc [2]: > 1e-07 M | Max Inhibition (%); IL-2 30 pM; NK92/hIL7R/STAT3-luc [2]: 44% | Max Inhibition (%); IL-4 250 pM; Ramos.2G6.4C10/STAT3-luc [2]: 96% | Max Inhibition (%); IL-7 50 pM; NK92/hIL7R/STAT3-luc [2]: 94% | Max Inhibition (%); IL-9 20 pM; NK92/hIL7R/STAT3-luc [2]: 83% | Max Inhibition (%); IL-15 60 pM; NK92/hIL7R/STAT3-luc [2]: 78% | 100 nM Ag Bound [3]: 1 RU | binding result [3]: no binding (tested: 100 nM) | 100 nM Ag Bound [4]: 0 RU

B5: H4H12857P (antibody, human IgG4 S228P, kappa, V domains shown)
VH: B4 VH
VL: B4 VL
notes: fully human anti-IL2Rg antibody, human IgG4; also called REGN9432
Binding Ratio (Sample over unstained MFIs) [5]: 1 | Raw MFI [5]: 198 MFI
